What was measured:
[1] = molecular target: T1, recombinant biotinylated CD20 (human) (human, UniProt P11836 1-297, limits assumed, biotinylated (site not stated)); experiment: ELISA, antibody coated on the plate, biotinylated CD20 titrated, streptavidin-HRP detection, OD 450 nm
T1 construct: also called hu CD20; B-lymphocyte antigen CD20
T1 sequence: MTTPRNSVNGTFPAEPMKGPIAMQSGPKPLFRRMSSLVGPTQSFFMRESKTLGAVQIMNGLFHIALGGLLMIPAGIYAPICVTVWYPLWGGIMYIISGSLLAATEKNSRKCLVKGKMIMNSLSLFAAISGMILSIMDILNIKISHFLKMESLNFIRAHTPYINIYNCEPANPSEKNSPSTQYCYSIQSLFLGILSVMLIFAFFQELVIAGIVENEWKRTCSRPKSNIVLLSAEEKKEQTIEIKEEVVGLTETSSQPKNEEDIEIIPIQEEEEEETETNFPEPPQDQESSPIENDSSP
Procedure: (§1) The interaction of the unmodified and of conjugated anti-CD20 antibodies with CD20 were measured by ELISA assay. […] Plates were washed four times with 100 μl of PBS-0.02% Tween20. and blocked with 25 μl of PBS-0.02% Tween20-1% BSA at 37° C. with shaking at 600 RPM, for 1 h. Plates were then washed four times with 100 μl of PBS-0.02% Tween20. 25 μl of recombinant biotinylated CD20 were added in seven-fold serial dilutions starting at 18 nM down to 10 pM into PBS-0.02% Tween20-0.1% BSA and incubated at 37° C. during 2 h. Plates were then washed four times with 100 μl of PBS-0.02% Tween20. 25 ul of Streptavidin-Horseradish peroxidase (#RABHRP3, Merck, Buchs, Switzerland) diluted at 1:500 into PBS-0.02% Tween20-0.1% BSA were added to each well and incubated at room temperature for 30 min. Plates were then washed four times with 100 μl of PBS-0.02% Tween20. Fifty microliters of TMB substrate reagent (#CL07, Merck, Buchs, Switzerland) were added to each well and incubated at 37° C. during 5min After 5 min at 37° C., Horseradish peroxidase reaction is stopped by adding 50 μl/well of 0.5M H₂SO₄ stop solution. ELISA signal is then measured at 450 nm on an ENSPIRE® plate reader from Perkin Elmer (Schwerzenbach, Switzerland).

[2] = molecular target: T1, recombinant biotinylated CD20 (human); experiment: ELISA, antibody coated on plate, biotinylated recombinant CD20 titrated, streptavidin-HRP detection; mean EC50
Procedure: as §1

[3] = molecular target: T2, Recombinant Mouse Fc gamma RIII/CD16 Protein (mouse, UniProt P08508 31-215); experiment: ELISA, antibody coated at 2.5 ug/ml, soluble Fc gamma receptor titrated, HRP detection; mean EC50
T2 construct: Bought recombinant protein; also called mu FcγRIII (CD16); murine CD16
T2 sequence (looked up): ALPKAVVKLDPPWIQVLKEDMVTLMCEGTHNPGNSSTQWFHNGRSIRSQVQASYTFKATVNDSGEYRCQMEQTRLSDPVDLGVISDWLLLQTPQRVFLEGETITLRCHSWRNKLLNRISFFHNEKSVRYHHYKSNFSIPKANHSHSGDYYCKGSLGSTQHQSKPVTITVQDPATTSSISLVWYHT
Procedure: (§2) To analyze Fc Receptor gamma binding test molecules were diluted to 2.5 ug/ml in PBS and plates were coated overnight at 4° C. The next day the assay plates were washed four times with 100 ul of wash buffer: PBS+0.02% Tween 20 and blocked with PBS+1% BSA, for one hour at 37° C., with shaking at 600 RPM. The blocked plates were then washed four times with 100 ul wash buffer. Diluted FcRgamma (Reagents listed, below) was freshly diluted in wash buffer. Plates were then incubated with 25 ul of diluted Fc for two hours with shaking at 600 RPMs, then washed with 100 ul wash buffer, four times. The wells were then incubated with 25 ul of either 1:500 diluted streptavidin-Horseradish peroxidase (HRP) for detection of human FcgR or 1:500 diluted Anti-HIS tag antibody-HRP in wash buffer. The HPR detection molecules were incubated in the wells at room temperature for one hour with shaking at 600 RPMs. Plate wells were washed with 100 ul of wash buffer, four times. Plates were detected using the chromogenic HRP substrate 3,3′,5,5;-tetramethylbenzidine (TMB). Samples were read using a spectrophotometer plate reader with OD set to 450 nm. Reagents: Recombinant Mouse Fc gamma RI/CD64 Protein, CF R&D Systems #2074-FC-050; Recombinant Human Fc gamma RI/CD64 Protein, CF R&D Systems #1257-FC-050; Recombinant Mouse Fc gamma RIII/CD16 Protein, CF R&D Systems #1960-FC-050; Recombinant Human Fc gamma RIIA/CD32a (H167) Protein, CF R&D Systems #9595-CD-050; Recombinant Mouse Fc gamma R4/CD16-2 Protein, CF R&D Systems #1974-CD-050; Recombinant Human Fc gamma RIIIA/CD16a Protein, CF R&D Systems #4325-FC-050; Recombinant Human Fc gamma RIIB/CD32b Avi-tag Protein, CF R&D Systems #AVI1875-050; Recombinant Mouse Fc gamma RIIB/CD32b Protein, CF R&D Systems #1460-CD-050; His Tag Horseradish Peroxidase-conjugated Antibody, R&D Systems #MAB050H; Streptavidin-HRP, Sigma #RABHRP3-600 µL.

[4] = molecular target: T3, Recombinant Human Fc gamma RIIB/CD32b Avi-tag Protein (human, UniProt P31994 46-217); experiment: as above
T3 construct: Bought recombinant protein with Avi-tag; also called hu FcγRIIb (CD32b); human CD32b
T3 sequence (looked up): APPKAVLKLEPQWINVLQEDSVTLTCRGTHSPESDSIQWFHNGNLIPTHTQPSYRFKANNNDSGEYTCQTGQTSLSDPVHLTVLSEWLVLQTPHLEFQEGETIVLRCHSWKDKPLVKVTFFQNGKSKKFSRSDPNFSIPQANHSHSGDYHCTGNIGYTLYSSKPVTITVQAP
Procedure: as §2

[5] = molecular target: T4, Recombinant Human Fc gamma RIIA/CD32a (H167) Protein (human, UniProt P12318 36-218); experiment: as above
T4 construct: Bought recombinant protein; H167 variant as printed; also called hu FcγRIIa (CD32a); human CD32a
T4 sequence (looked up): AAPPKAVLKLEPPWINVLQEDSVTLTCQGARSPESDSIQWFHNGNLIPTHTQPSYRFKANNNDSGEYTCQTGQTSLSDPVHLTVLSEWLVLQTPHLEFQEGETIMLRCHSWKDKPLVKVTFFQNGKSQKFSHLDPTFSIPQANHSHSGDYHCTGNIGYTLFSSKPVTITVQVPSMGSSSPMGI
Procedure: as §2

[6] = molecular target: T5, Recombinant Human Fc gamma RIIIA/CD16a Protein (human, UniProt P08637 17-208); experiment: as above
T5 construct: Bought recombinant protein; also called hu FcγRIII (CD16a); huFcgRIII
T5 sequence (P08637 17-208 limits assumed): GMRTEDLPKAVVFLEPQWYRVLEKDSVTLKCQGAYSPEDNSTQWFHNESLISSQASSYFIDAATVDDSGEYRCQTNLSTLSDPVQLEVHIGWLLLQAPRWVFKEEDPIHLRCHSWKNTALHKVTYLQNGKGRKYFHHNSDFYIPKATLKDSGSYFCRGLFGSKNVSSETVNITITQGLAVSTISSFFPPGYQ
Procedure: as §2

[7] = molecular target: T6, Recombinant Mouse Fc gamma RI/CD64 Protein (mouse, UniProt P26151 25-297); experiment: as above
T6 construct: Bought recombinant protein; also called mu FcγRI (CD64); murine CD64
T6 sequence (looked up): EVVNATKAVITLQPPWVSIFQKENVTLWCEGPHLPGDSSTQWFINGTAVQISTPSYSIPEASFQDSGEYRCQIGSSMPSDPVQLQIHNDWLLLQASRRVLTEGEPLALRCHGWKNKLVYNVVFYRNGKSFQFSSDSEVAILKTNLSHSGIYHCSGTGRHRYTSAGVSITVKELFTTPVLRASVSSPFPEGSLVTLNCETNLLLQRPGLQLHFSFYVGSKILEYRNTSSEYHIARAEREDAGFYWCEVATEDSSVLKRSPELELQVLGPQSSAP
Procedure: as §2

[8] = molecular target: T7, Recombinant Human Fc gamma RI/CD64 Protein (human, UniProt P12314 16-288); experiment: as above
T7 construct: Bought recombinant protein; also called hu FcγRI (CD64)
T7 sequence (P12314 16-288 limits assumed): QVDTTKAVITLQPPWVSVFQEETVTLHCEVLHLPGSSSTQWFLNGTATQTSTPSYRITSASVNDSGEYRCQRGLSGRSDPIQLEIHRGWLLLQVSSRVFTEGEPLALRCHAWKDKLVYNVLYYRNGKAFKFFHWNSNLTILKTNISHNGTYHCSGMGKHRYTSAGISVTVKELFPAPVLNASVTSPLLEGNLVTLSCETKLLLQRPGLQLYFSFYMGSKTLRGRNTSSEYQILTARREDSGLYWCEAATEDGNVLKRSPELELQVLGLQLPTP
Procedure: as §2

EC50 (read off the curve) [1]: ~0.04 nM
EC50 [2]: 0.08 nM
EC50 [3]: 133 nM
EC50 [4]: 880 nM
EC50 [5]: 740 nM
EC50 [6]: 185 nM
EC50 [7]: 35 nM
EC50 [8]: 0.23 nM
B1: biosimilar Rituximab (unconjugated parent anti-CD20 antibody) (antibody, human IgG1, kappa)
heavy: not shown
light: QIVLSQSPAILSASPGEKVTMTCRASSSVSYIHWFQQKPGSSPKPWIYATSNLASGVPVRFSGSGSGTSYSLTISRVEAEDAATYYCQQWTSNPPTFGGGTKLEIKRTVAAPSVFIFPPSDEQLKSGTASVVCLLNNFYPREAKVQWKVDNALQSGNSQESVTEQDSKDSTYSLSSTLTLSKADYEKHKVYACEVTHQGLSSPVTKSFNRGEC
notes: The antibody tested is a biosimilar of rituximab; also called aCD20 AB; parent antibody

Reference: patent US20230201365A1 (BRIGHT PEAK THERAPEUTICS, published 2023)
